Data reported in patent US20230236179A1.

Legend:
[1] = biological target: human interleukin-1 beta (IL-1β) protein standard (R&D Systems 201-LB-005) (human) (UniProt P01584); test: dSimoa sandwich (capture beads + detector m2), 300 pM streptavidin-DNA/15 min; IL-1B at 0.5 fM
[2] = biological target: human interleukin-1 beta (IL-1β) protein standard (R&D Systems 201-LB-005) (human) (UniProt P01584); test: conventional Simoa sandwich (capture beads + detector m2), 150 pM SβG/5 min; IL-1B at 25 fM
[3] = biological target: human interleukin-1 beta (IL-1β) protein standard (R&D Systems 201-LB-005) (human) (UniProt P01584); test: dSimoa sandwich (capture beads + detector m2), 300 pM streptavidin-DNA/15 min; IL-1B at 1 fM
[4] = biological target: human interleukin-1 beta (IL-1β) protein standard (R&D Systems 201-LB-005) (human) (UniProt P01584); test: conventional Simoa sandwich (capture beads + detector m2), 150 pM SβG/5 min; IL-1B at 100 fM
[5] = biological target: human interleukin-1 beta (IL-1β) protein standard (R&D Systems 201-LB-005) (human) (UniProt P01584); test: dSimoa sandwich (capture beads + detector m2), 300 pM streptavidin-DNA/15 min; IL-1B at 10 fM
[6] = biological target: human interleukin-1 beta (IL-1β) protein standard (R&D Systems 201-LB-005) (human) (UniProt P01584); test: conventional Simoa sandwich (capture beads + detector m2), 150 pM SβG/5 min; IL-1B at 0.391 fM
[7] = biological target: human interleukin-1 beta (IL-1β) protein standard (R&D Systems 201-LB-005) (human) (UniProt P01584); test: dSimoa sandwich (capture beads + detector m2), 300 pM streptavidin-DNA/15 min; IL-1B at 0.05 fM
[8] = biological target: human interleukin-1 beta (IL-1β) protein standard (R&D Systems 201-LB-005) (human) (UniProt P01584); test: conventional Simoa sandwich (capture beads + detector m2), 150 pM SβG/5 min; IL-1B at 0.098 fM
[9] = biological target: human interleukin-1 beta (IL-1β) protein standard (R&D Systems 201-LB-005) (human) (UniProt P01584); test: conventional Simoa sandwich (capture beads + detector m2), 300 pM SβG/15 min; IL-1B at 0.391 fM
[10] = biological target: human interleukin-1 beta (IL-1β) protein standard (R&D Systems 201-LB-005) (human) (UniProt P01584); test: conventional Simoa sandwich (capture beads + detector m2), 300 pM SβG/15 min; IL-1B at 100 fM
[11] = biological target: human interleukin-1 beta (IL-1β) protein standard (R&D Systems 201-LB-005) (human) (UniProt P01584); test: conventional Simoa sandwich (capture beads + detector m2), 150 pM SβG/5 min; IL-1B at 1.563 fM
[12] = biological target: human interleukin-1 beta (IL-1β) protein standard (R&D Systems 201-LB-005) (human) (UniProt P01584); test: conventional Simoa sandwich (capture beads + detector m2), 300 pM SβG/15 min; IL-1B at 25 fM
[13] = biological target: human interleukin-1 beta (IL-1β) protein standard (R&D Systems 201-LB-005) (human) (UniProt P01584); test: conventional Simoa sandwich (capture beads + detector m2), 300 pM SβG/15 min; IL-1B at 1.563 fM
[14] = biological target: human interleukin-1 beta (IL-1β) protein standard (R&D Systems 201-LB-005) (human) (UniProt P01584); test: dSimoa sandwich (capture beads + detector m2), 300 pM streptavidin-DNA/15 min; IL-1B at 0.1 fM
[15] = biological target: human interleukin-1 beta (IL-1β) protein standard (R&D Systems 201-LB-005) (human) (UniProt P01584); test: conventional Simoa sandwich (capture beads + detector m2), 300 pM SβG/15 min; IL-1B at 0.098 fM
[16] = biological target: human interleukin-1 beta (IL-1β) protein standard (R&D Systems 201-LB-005) (human) (UniProt P01584); test: conventional Simoa sandwich (capture beads + detector m2), 300 pM SβG/15 min; IL-1B at 0.024 fM
[17] = biological target: human interleukin-1 beta (IL-1β) protein standard (R&D Systems 201-LB-005) (human) (UniProt P01584); test: dSimoa sandwich (capture beads + detector m2), 300 pM streptavidin-DNA/15 min; IL-1B at 100 fM
[18] = biological target: human interleukin-1 beta (IL-1β) protein standard (R&D Systems 201-LB-005) (human) (UniProt P01584); test: conventional Simoa sandwich (capture beads + detector m2), 300 pM SβG/15 min; IL-1B at 6.25 fM
[19] = biological target: human interleukin-1 beta (IL-1β) protein standard (R&D Systems 201-LB-005) (human) (UniProt P01584); test: dSimoa sandwich (capture beads + detector m2), 300 pM streptavidin-DNA/15 min; IL-1B at 0.01 fM

UniProt P01584, sequence (P01584 117-269 limits assumed): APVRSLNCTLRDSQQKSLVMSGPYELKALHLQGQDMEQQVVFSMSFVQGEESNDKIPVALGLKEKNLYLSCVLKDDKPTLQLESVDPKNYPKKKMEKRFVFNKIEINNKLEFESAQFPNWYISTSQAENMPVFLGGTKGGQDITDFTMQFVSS

Question: With “IL-1β capture antibody (Biolegend 508202)” as the substance, how does the average AMB [1] read?
Answer: 0.0114 AMB

Question: What about the average AEB [2] of the same substance?
Answer: 0.199 AEB

Question: And the average AMB [3]?
Answer: 0.0133 AMB

Question: What about the average AEB [4] of the same substance?
Answer: 0.721 AEB

Question: What about the average AMB [5] of the same substance?
Answer: 0.0898 AMB

Question: What about the average AEB [6] of the same substance?
Answer: 0.0135 AEB

Question: And the average AMB [7]?
Answer: 0.0054 AMB

Question: What about the average AEB [8] of the same substance?
Answer: 0.0108 AEB

Question: What about the average AEB [9] of the same substance?
Answer: 0.029 AEB

Question: And the average AEB [10]?
Answer: 0.767 AEB

Question: What about the average AEB [11] of the same substance?
Answer: 0.0222 AEB

Question: What about the average AEB [12] of the same substance?
Answer: 0.221 AEB

Question: And the average AEB [13]?
Answer: 0.0379 AEB

Question: What about the average AMB [14] of the same substance?
Answer: 0.0051 AMB

Question: And the average AEB [15]?
Answer: 0.0271 AEB

Question: And the average AEB [16]?
Answer: 0.0428 AEB

Question: And the average AMB [17]?
Answer: 0.822 AMB

Question: And the average AEB [18]?
Answer: 0.0714 AEB

Question: What about the average AMB [19] of the same substance?
Answer: 0.0044 AMB
